Laboratory results as given in patent US20220220204A1 (NANJING GENSCRIPT BIOTECH, published 2022).
Changes are numbered by the printed parent chain. Each block holds one binder with its values, some of them ahead of it.

Target: human PD-L1 (PD-L1 aAPC/CHO-K1 cells) (human, UniProt Q9NZQ7 19-290)
Assay: cell-based or functional assay

human PD-L1 (PD-L1 aAPC/CHO-K1 cells), sequence (Q9NZQ7 19-290): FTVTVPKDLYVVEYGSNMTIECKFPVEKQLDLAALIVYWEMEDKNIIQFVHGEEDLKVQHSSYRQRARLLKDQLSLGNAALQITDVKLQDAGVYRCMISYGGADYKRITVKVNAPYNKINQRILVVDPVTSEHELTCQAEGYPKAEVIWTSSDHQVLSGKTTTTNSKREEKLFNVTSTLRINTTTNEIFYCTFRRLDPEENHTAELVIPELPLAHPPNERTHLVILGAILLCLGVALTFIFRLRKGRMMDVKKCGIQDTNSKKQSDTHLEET

Bottom (PD-1/PD-L1 blockade bioassay): 28900 | Log EC50 (PD-1/PD-L1 blockade bioassay): -0.323 | Top (PD-1/PD-L1 blockade bioassay): 113000
B1: PDL1HCv1 (antibody, human IgG1, kappa, N297A, V domains shown)
VH: EVQLVQSGAEVKKPGASVKVSCKASGYIFTGYGITWVRQAPGQGLEWMGEIFPRRVQTYYSEKFKGRVTMTTDTSTSTAYMELRSLRSDDTAVYYCARDYDPYFALDYWGQGTTVTVSS
VL: DIQMTQSPSSLSASVGDRVTITCRASQDVSTAVDWYQQKPGKAPKLLIYSASYRYTGVPDRFSGSGSGTDFTFTISSLQPEDIATYYCQQHYSIPFTFGQGTKLEIKR

Bottom (PD-1/PD-L1 blockade bioassay): 27800 | Log EC50 (PD-1/PD-L1 blockade bioassay): -0.111 | Top (PD-1/PD-L1 blockade bioassay): 110000
B2: PDL1HCv5 (antibody, human IgG1, kappa, N297A, V domains shown)
VH: B1 VH with T72A
VL: B1 VL
